Results published in PMC8649222, “Exclusive inhibition of IL-6 trans-signaling by soluble gp130^FlyRFc” (Cytokine: X, 2021).
Where a chain is given by its changes, count along the chain named.

B1: sgp130Fc (Fc fusion, human, UniProt P40189 23-619, looked up)
chain: ELLDPCGYISPESPVVQLHSNFTAVCVLKEKCMDYFHVNANYIVWKTNHFTIPKEQYTIINRTASSVTFTDIASLNIQLTCNILTFGQLEQNVYGITIISGLPPEKPKNLSCIVNEGKKMRCEWDGGRETHLETNFTLKSEWATHKFADCKAKRDTPTSCTVDYSTVYFVNIEVWVEAENALGKVTSDHINFDPVYKVKPNPPHNLSVINSEELSSILKLTWTNPSIKSVIILKYNIQYRTKDASTWSQIPPEDTASTRSSFTVQDLKPFTEYVFRIRCMKEDGKGYWSDWSEEASGITYEDRPSKAPSFWYKIDPSHTQGYRTVQLVWKTLPPFEANGKILDYEVTLTRWKSHLQNYTVNATKLTVNLTNDRYLATLTVRNLVGKSDAAVLTIPACDFQATHPVMDLKAFPKDNMLWVEWTTPRESVKKYILEWCVLSDKAPCITDWQQEDGTVHRTYLRGNLAESKCYLITVTPVYADGPGSPESIKAYLKQAPPSKGPTVRTKKVGKNEAVLEWDQLPVDVQNGFIRNYTIFYRTIIGNETAVNVDSSHTEYTLSSLTSDTLYMVRMAAYTDEGGKDGPEFTFTTPKFAQGEIE
B2: sgp130^FlyFc (Fc fusion, human, UniProt P40189 23-619, looked up)
chain: B1 chain with T80Y, Q91F, N92L
B3: sgp130^R281QFc (Fc fusion, human, UniProt P40189 23-619, looked up)
chain: B1 chain with R259Q
B4: Hyper IL-11 (HIL-11), IL-11 covalently linked to sIL-11R (other)
chain: SSPCPQAWGPPGVQYGQPGRSVKLCCPGVTAGDPVSWFRDGEPKLLQGPDSGLGHELVLAQADSTDEGTYICQTLDGALGGTVTLQLGYPPARPVVSCQAADYENFSCTWSPSQISGLPTRYLTSYRKKTVLGADSQRRSPSTGPWPCPQDPLGAARCVVHGAEFWSQYRINVTEVNPLGASTRLLDVSLQSILRPDPPQGLRVESVPGYPRRLRASWTYPASWPCQPHFLLKFRLQYRPAQHPAWSTVEPAGLEEVITDAVAGLPHAVRVSARDFLDAGTWSTWSPEAWGTPSTGTIPKEIPAWGQLHTQPEVEPQVDSPAPPRPSLQPHPRLLDHRDSVEQVAVLAPGPPPGPPRVSPDPRAELDSTVLLTRSLLADTRQLAAQLRDKFPADGDHNLDSLPTLAMSAGALGALQLPGVLTRLRADLLSYLRHVQWLRRAGGSSLKTLEPELGTLQARLDRLLRRLQLLMSRLALPQPPPDPPAPPLAPPSSAWGGIRAAHAILGGLHLTLDWAVRGLLLLKTRL
B5: IL-27 (complex)
chain 1: FPRPPGRPQLSLQELRREFTVSLHLARKLLSEVRGQAHRFAESHLPGVNLYLLPLGEQLPDVSLTFQAWRRLSDPERLCFISTTLQPFHALLGGLGTQGRWTNMERMQLWAMRLDLRDLQRHLRFQVLAAGFNLPEEEEEEEEEEEEERKGLLPGALGSALQGPAQVSWPQLLSTYRLLHSLELVLSRAVRELLLLSKAGHSVWPLGFPTLSPQP
chain 2: RKGPPAALTLPRVQCRASRYPIAVDCSWTLPPAPNSTSPVSFIATYRLGMAARGHSWPCLQQTPTSTSCTITDVQLFSMAPYVLNVTAVHPWGSSSSFVPFITEHIIKPDPPEGVRLSPLAERQLQVQWEPPGSWPFPEIFSLKYWIRYKRQGAARFHRVGPIEATSFILRAVRPRARYYVQVAAQDLTDYGELSDWSLPATATMSLGK

Experiments:
[1] = molecular target: B4; assay: cell-based or functional assay
sgp130^R281QFc = molecular target: B3; assay: SPR; Biacore X100, multi-cycle; sgp130Fc variants captured on a Protein A chip (~500 RU); HIL-6 or HIL-11 injected at 0.1953-50 nM, 30 µl/min; 25 °C, PBS pH 7.4, 0.05% surfactant P20; 1:1 binding model; details: both partners purified
sgp130^FlyFc [2] = molecular target: B2; assay: as above; details: both partners purified
sgp130Fc [3] = molecular target: B1; assay: as above; details: both partners purified
sgp130^FlyFc [4] = molecular target: B2; assay: SPR; sgp130Fc and sgp130^FlyFc captured on a ProtA chip; increasing concentrations of IL-27 injected; details: both partners purified
sgp130Fc [5] = molecular target: B1; assay: as above; details: both partners purified

With B1 the “IC50 of inhibition of H-IL-11 (10 ng/ml) induced proliferation of Ba/F3-gp130 cells (blocks HIL-11 from membrane-bound gp130)” value [1] was 0.12 nM.

B2 was tested, and the “IC50 of inhibition of H-IL-11 (10 ng/ml) induced proliferation of Ba/F3-gp130 cells (blocks HIL-11 from membrane-bound gp130)” value [1] was 40.7 nM.

For B3, the “IC50 of inhibition of H-IL-11 (10 ng/ml) induced proliferation of Ba/F3-gp130 cells (blocks HIL-11 from membrane-bound gp130)” value [1] was 72.8 nM.

B4 showed a Kd (sgp130^R281QFc) of 0.61 nM, a Kd (sgp130^FlyFc [2]) of 0.67 nM and a Kd (sgp130Fc [3]) of 0.069 nM.

B5 was tested, and the Kd (sgp130^FlyFc [4]) was 58 nM and the Kd (sgp130Fc [5]) was 69 nM.
